{
  "source": "patent US20040009898A1",
  "about": "(UNIVERSITY OF IOWA RESEARCH FOUNDATION, published 2004)",
  "biological_target": "urokinase plasminogen activator receptor (uPAR) on differentiated human airway epithelia (human, UniProt Q03405 23-305, GPI-linked)",
  "sequence (Q03405 23-305)": "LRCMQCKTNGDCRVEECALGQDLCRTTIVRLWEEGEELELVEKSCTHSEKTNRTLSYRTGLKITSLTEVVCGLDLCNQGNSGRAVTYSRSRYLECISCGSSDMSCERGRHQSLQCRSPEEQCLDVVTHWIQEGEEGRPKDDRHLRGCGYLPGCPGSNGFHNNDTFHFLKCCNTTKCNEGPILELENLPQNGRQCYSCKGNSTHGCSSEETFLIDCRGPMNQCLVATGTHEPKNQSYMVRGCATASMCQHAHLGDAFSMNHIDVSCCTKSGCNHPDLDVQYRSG",
  "assay": "cell-based or functional assay",
  "note": "No end group written: not given here.",
  "data": [
    {"binder": "CLNGGTC (other, not fully specified; also: coupled through bifunctional PEG to adenovirus capsid, terminal Cys with free sulfhydryl used for coupling)", "note": "[u7-peptide coupled through PEG to the capsid of adenovirus Ad2/βgal-4]", "values": [
      {"measurement": "gene transfer (β-galactosidase) to human airway epithelia", "value": 10, "unit": "fold"}
    ]}
  ]
}
